# B1: LINE1-full (parent)
# chain: UACGUAGGUGGUUUUCCCCUGAUAGUGCUAAGGGGGCCUGGAAGUUUGGACUGGGCAGAGCUCAACACAGCGUGGCAAAGUGGCUGUGGCUAGACUGCCUCUCUGGAUUCCUCGUCACUCAGCAGGGCAUCUCUGAGAGAAAUGCC
# Variants of: B1
# Assay: self-cleavage, relative activity (ratio to wild type); higher = more cleavage; in vitro, sequencing; the parent is a self-cleaving ribozyme
row,Variant,self-cleavage
1,A107C A136G,1.73
2,U26C A43C,1.63
3,U12G C113U,0.66
4,A79G U130C,1.45
5,U9G A64U,0.53
6,G54C U143A,1.3
7,G41A A78G,0.58
8,C76A U81G,0.33
9,C63G,0.09
10,A64G A121U,0.22
11,G41U A65G,0.03
12,U23C U45G,1.02
13,U5G U39C,0.63
14,C17U U52G,1.41
15,U26C A57U,0.14
16,U12G U109C,1.57
17,U73G U119C,1.57
18,U5G A64C,0.19
19,G10A U45C,1.4
20,U119C A142U,1.95
21,A6U G137A,1.53
22,U62G G82U,0.03
23,A22U U119A,1.46
24,U14C A94G,0.31

row,Variant,self-cleavage
1,G41A A43C,0.25
2,G41A A43G,0.44
3,U15C A92U,0.79
4,U14C C76U,1.23
5,U12C C18U,1.28
6,A43C C113A,1.1
7,U45G A67G,0.45
8,U62C,0.05
9,G126A U134C,1.58
10,U29A A141G,1.15
11,A67U A121G,0.15
12,G8C G75A,1.2
13,A67U U119C,0.19
14,U26A U29A,1.12
15,U96C A140U,0.14
16,A67C U115A,0.04
17,U52C U62C,0.03
18,G4C A22G,0.99
19,C19U G75A,1.11
20,C3A G32A,0.88
21,A107G G126C,2.78
22,A57G U130C,1.3
23,C28A C116U,1.34
24,U87A U102C,0.08

row,Variant,self-cleavage
1,U81A C103A,1.98
2,A107G A142U,0.74
3,U13C G122A,1.5
4,A65U U104C,0.52
5,A6U U134A,1.28
6,A50C U115C,1.84
7,U14A U29C,1.28
8,G33C C71U,1.93
9,G49U U96C,0.11
10,U9A C90A,0.04
11,G8A A50G,0.85
12,A140U G144A,1.39
13,U47C G89A,0.02
14,U96A C118A,0.02
15,U15C G137U,1.26
16,A78G A92G,0.11
17,C103U,1.23
18,U87A A136U,0.1
19,U5C C37U,1.02
20,U52C U91C,0.67
21,A67G U102A,0.99
22,A22U C68U,0.13
23,G34A U73A,0.8
24,U14C U91C,0.79

row,Variant,self-cleavage
1,G53U G60U,0.03
2,A31G A138G,0.86
3,U12A U87C,0.25
4,A78G A141G,1.38
5,U1C G32U,0.21
6,U5A A65U,0.26
7,U23A A31G,0.93
8,U14C U100G,1.38
9,A77G U100C,2.88
10,G25U A59G,0.18
11,A30G A79U,0.5
12,A2G U112C,0.87
13,U1C U46C,1.11
14,A6U G32U,0.54
15,A65G U91C,0
16,A6G G7A,0.43
17,G25U U46C,1.74
18,A117U A129G,1.69
19,A136G A138U,1.98
20,G86A A124U,0.05
21,U47C U143C,1.57
22,U47A G53A,1.23
23,C66U U109A,0.03
24,U102G G144U,0.97

row,Variant,self-cleavage
1,C19U A42C,0.69
2,C38U A138C,1.46
3,A64G U132A,0.34
4,U47A A65G,0.07
5,A6U U119C,0.75
6,U52C A140G,1.1
7,U45C G106U,1.17
8,C84U A138G,0.13
9,G40A A141G,1.06
10,C37A U91C,0.41
11,A79U U102C,1.04
12,U20A A136G,0.93
13,G7U U91A,1.12
14,U39C G41A,1.41
15,G60C U96A,0.04
16,C3A A30G,1.39
17,U73A G126A,0.57
18,G53U U130A,1.53
19,A94U U112A,0.31
20,U45A C51G,1.44
21,G88A U96A,0.03
22,U45A U102C,1.45
23,A57C,0.08
24,U39C C113G,1.71

row,Variant,self-cleavage
1,U39C C113A,0.33
2,A136C A140G,1.53
3,C3U U12G,1.13
4,U9A U85C,0.54
5,A30G U96C,0.45
6,G106A C128U,1.7
7,A69G U104A,0.2
8,U46A A124U,1.11
9,U1C A57U,0.09
10,A24U U46C,1.54
11,U87A A129G,0.11
12,A43U A124G,0.71
13,A64U U108C,0.65
14,C56U U134G,0.28
15,U87C U104A,0.09
16,A22G U46A,0.95
17,U87C G114A,0.23
18,A43U A121U,0.79
19,C3U U9A,0.84
20,U115C A140G,1.58
21,U23C C99U,0.91
22,A140U U143C,1.54
23,A24G A117G,1.78
24,U96C U132A,0.11

row,Variant,self-cleavage
1,A69G G86A,0.03
2,U29A U102C,1.2
3,G54A A92G,0.04
4,A121G C146U,1.39
5,U12A U26C,1.22
6,U47A A121C,1.49
7,U47A U104A,0.59
8,C66A A141G,0.04
9,A6G U20G,1.34
10,G89C A140U,0.05
11,A107U G127A,0.93
12,G82A U108C,2.48
13,A31C C71A,0.19
14,U52A U87G,0.29
15,G32U C113A,0.96
16,G11A A141U,1.05
17,U45C U132C,1.51
18,U81C U115G,1.1
19,U73A A124G,1.03
20,A31G U73A,0.79
21,A77U U81C,1.47
22,U23C A42G,1.18
23,A2G G105U,1.3

# Reference: the RNAGym collection of RNA variant scans (doi:10.7554/elife.90254)
